Data published in a protein production outcome set (Wang et al. 2014).

Assay: label from the status in PepcDB records

Sequence	protein production
VGDGKNQIFVKSLDGYREVQITDEKEGVSTFKWGPTGKGLYYVTQSKECEEIKKRKDLYGDFQHIGKEHQNNCLYYIEIEKVIQSDTDEHKNRVVYQLTDGKDFHIHEFDISNDGKKVVFMATPSSNMADYINGDLYILHIKAGELQKLNVDKLLGGSVCFSPDGSEICYTASIREKGYYRNHIQDSTLEIYDINTGELIQPLTDFD	failed
VGVRRENATATGVLLIPDGPDCPRPYPILTWGPSTSAQRHVGQDKTIVNANGNTPLVTRLASQGYVLVSPDYLGLGDSDYPFHPYLHLFTEVSSTIDAVRAARDVLWHSNTPLSNKVMLSGFSQGGQAALAVQREIEAHQSLSQEFSLVASAPISGPYALSQTILDSWSGRNK	failed
VIAAHGWAGDATVWRAWQQRFEARGWHWDAIERGYGQREPHQPSWAELPGQRLVIAHSLGLHLLPEKVLQQADAVVSLAGFAAFVPAGAAGRALGVALKGMASCLGTSDEPAMLRKFLSRCASPLPLSALPNNPLLRGMHPSGRQRLQDDLVLLQQCQSLPDGWPEGASVLVVQGEQDAIVCPDSRTQLLQALPPSRTDHRLRPDEGHAVVTPAVLDLVVRWAGN	failed
VINLKELKILHTSDWHLGVTSWTSSRPVDRREELKKALDKVVEEAEKREVDLILLTGDLLHSRNNPSVVALHDLLDYLKRMMRTAPVVVLPGNHDWKGLKLFGNFVTSISSDITFVMSFEPVDVEAKRGQKVRILPFPYPDESEALRKNEGDFRFFLESRLNKLYEEALKKEDFAIFMGHFTVEGLAGYAGIEQGREIIINRALIPSVVDYAALGHIHSFREIQKQPLTIYPGSLIRIDFGEEADEKGAVFVELKRGEPPRYERIDASPLPLKTLYYKKIDTSALKSIRDFCRNFPGYVRVVYEEDSGILPDLMGEIDNLVKIE	not failed
VIVESLVYHLSGKTYESRLVYEPGALGRPGLVMAPNWMGIGEGAERIAKEVAEKGYVVLIADLYGQSVRPSNADEAGVAMMPLKNDRGELRKRMQEALAQLLGQSKALLEPGKVATFGFCFGGCCALELARSGADLRAAVSFHGTLDTPNPEDAKRIKGSVLVLHGASDPLVPKEQLPAFEDEMNAAKVDWQLLSYGGAVHSFTDPNANMPGKMQYDRRTSERAFRSMHNLLSEVF	failed
VKPKGAFKAFTGEGQKLGSTAPQVLSTSSPAQQAENEAKASSSILIDESEPTTNIQIRLADGGRLVQKFNHSHRISDIRLFIVDARPAMAATSFILMTTFPNKELADESQTLKEANLLNAVIVQRLT	failed
VKSIFEIDIEKLADSGVKGIITDLDNTLVGWDVKEPTKGVKSWFAKAKDLGITVTIVSNNNKSRVSSFSSNLGVDYIFKARKPMGKAFKMAIKKMKIQPRETVVVGDQMLTDVFGGNCNGLYTIMVVPVKRTDGLITKFN	not failed
VLRWITAGESHGRALVAVVEGMVAGVHVTSADIADQLARRRLGYGRGARMTFERDAVTVLSGIRHGSTLGGPIAIEIGNTEWPKWETVMAADPVDPAELADVARNAPLTRPRPGHADYAGMLKYGFDDARPVLERASARETAARVAAGTVARAFLRQALGVEVLSHVISIGASAPYEGPPPRAEDLPAIDASPVRAYDKAAEADMIAQIEAAKKDGDTLGGVVEAVALGLPVGLGSFTSGDHRLDSQLAAAVMGIQAIKGVEIGDGFQTARRRGSRAHDEMYPGPDGVVRSTNRAGGLEGGMTNGQPLRVRAAMKPISTVPRALATVDLATGDEAVAIHQRSDVCAVPAAGVVVETMVALVLARAALEKFGGDSLAETQRNIAAYQRSVADREAPAARVSG	not failed
VMQMDRQPLVDPFGDYFQEFLSNAQNGQFFTPFGVCELMNQLITAPKVSDQPKQGDRRVLDPACGSGRLLLSAAQKDRALTFVGIDISYTCCLMTIINLCLNSLNGEVLHMNALTDQYWHRWL	failed
VPKLVDHDERRRSITAAAWRLIAARGIEAANMRDIATEAGYTNGALSHYFAGKDEILRTSYEHISEATDRRIAEALGDATGLDALRILCREVMPINEEQLLEARIAASLWPRAMYDEQMAATNRRTMDNWREQMAIFLEQAREEGSVGDIDVTIVVEQLLNMMMGMQILGVLTPGETSSERQLEMLEQFVAAL	not failed
VPYAVEGRNYQGDLYLPCERIRAGLVLLPGAAEEGKDDPRLQAFAETLARARFAVLVPDLGGFRSLRAGSRDIGETADAILWLSSRPGLSPGGKCGVAALSYAGGPALLAALEPRAGQRVRFLVTVGGYYDLRNVLTFFTTGWYRDGDRWRRGTPNNYGKWVFVLANTDRIKNVRDRTALEKLARRKMDNPAARTDDLVRGLGPEGKSLYDFFANTDPRQVPALVERLPTPIRRDLAALDPSRRDLRGLTARLIIIHGRDDDIIPAAESEALARAVPRDRRGLFVLDGLMHVELKPKLTDAFRLWRAVSAILRER	failed
VQRCVIIQKDQHGFGFTVSGDRIVLVQSVRPGGAAMKAGVKEGDRIIKVNGTMVTNSSHLEVVKLIKSGAYVALTLLGSS	not failed
VQRPWLAPLPGAPMNACRLLLCFPYGGGGASAFNDLSRLADVGVATWAVKLPGREDRSMEAPVTRVANVIEAIVDALQSVGIPYAFYGHSFGAGLALDVAHALAERDRPLPTHLVLSGRMPPHTGYSPLLGAMDDNQLWQHVCSESLLPLPTDASCSFARHALGKLKADLALNAQLTYRFIRPLPVPLYVLNGQDDPLLELHRLDEWQRYTSTSFHSEYVPGGHFFFNINFQLLYLPLLTALD	not failed
VQVGNCLQVMWLADRHSDPELYTAAKHCAKTHLAQLQNTEEFLHLPHRLLTDIISDGVPCSQNPTEAIEAWINFNKEEREAFAESLRTSLKEIGENVH	not failed
VRQVEEYIEANWMRPITIEKLTALTGISSRGIFKAFQRSRGYSPMAFAKRVRLQHAHNLLSDGATPTTVTAAALSCGFSNLGHFARDYRDMFGEKPSETLQRARP	not failed
VTATETVRVRFCPSPTGTPHVGLVRTALFNWAYARHTGGTFVFRIEDTDAQRDSEESYLALLDALRWLGLDWDEGPEVGGPYGPYRQSQRAEIYRDVLARLLAAGEAYHAFSTPEEVEARHVAAGRNPKLGYDNFDRHLTDAQRAAYLAEGRQPVVRLRMPDDDLAWNDLVRGPVTFAAGSVPDFALTRASGDPLYTLVNPCDDALMKITHVLRGEDLLPSTPRQLALHQALIRIGVAERIPKFAHLPTVLGEGTKKLSKRDPQSNLFAHRDRGFIPEGLLNYLALLGWSIADDHDLFGLDEMVAAFDVADVNSSPARFDQKKADALNAEHIRMLDVGDFTVRLRDHLDTHGHHIALDEAAFAAAAELVQTRIVVLGDAWELLKFFNDDQYVIDPKAAAKELGPDGAAVLDAALAALTSVTDWTAPLIEAALKDALIEGLALKPRKAFSPIRVAATGTTVSPPLFESLELLGRDRSMQRLRAARQLVGHA	not failed

Sequence	protein production
VTDVLLCVGNSMMGDDGAGPLLAEKCAAAPKGNWVVIDGGSAPENDIVAIRELRPTRLLIVDATDMGLNPGEIRIIDPDDIAEMFMMTTHNMPLNYLIDQLKEDIGEVIFLGIQPDIVGFYYPMTQPIKDAVETVYQRLEGWEGNGGFAQLAVEEE	not failed
VTEEEIHAMLEEGSVAGIIEQQEHEMVRNVFRLDDRQLGSLMVPRADIIYLDTALPLEENMKRVVESEHSRFPVCHNGLQSLLGVVNAKQLLAQTIKGGVTNLAEHLQPCVYVPETLTGMELLDHFRTSGTQMVFVVDEYGEIQGLVTLQDMLEAVTGEFA	not failed
VTLSSGMQALLDDKFVYLAVNQAYAEKLNLTIDQVIGKHPRDIYSKGYFESELKIYSERCLAGEIIKLEKWMRSSSGQAWFIDIEMSPYYQNDGNIYGVMVNARDIT	failed
VYGSEVESKIIEFTIVGADEIIAEKLGISVGDFVYKIIRLRIIHSIPTIMEHTWMPISVIPGVEVSVLEESIYSHIQNKLGLQVGTSVVRVKGIRPDDKEKQFMNLTNQDFLMRVEQVAYLTDGRTFEYSYADHLPETFEFETVITAKSYKEA	not failed
VYRRILLTVDEDDNTSSERAFRYATTLAHDYDVPLGICSVLESEDINIFDSLTPSKIQAKRKHVEDVVAEYVQLAEQRGVNQVEPLVYEGGDVDDVILEQVIPEFKPDLLVTGADTEFPHSKIAGAIGPRLARKAPISVIVVR	failed
WFMPFDNWLYQLQNADPVEISSSGFEIAVIDYSKDGSESGEYSPEEIKIMVDAGVVPVAYVNIGQAEDYRFYWKESWYTNTPEWLGEEDPAWPGNYFVKYWYNEWKEIVFSYLDRVIDQGFKGIYLDRIDSFEYWAQEGVISRRSAARKMINFVLEIAEYVRERKPDMLIIPQNGENILDFDDGQLASTVSGWAVENLFYLKTIPLEENETKSRLEYLIRLNRKGKFILSVDYVDDGSDSFENISRILDYYEKAKRNGCIPYAARSDLELDEMNVIEGIQPPEALKDYESRTYR	not failed
WMLGIPIGGLLAFILGGAALSVFHFGMDYTNRNEFCYSCHIGMDTIVEEYQASPHFKNAQGVIAATCSDCHVPREFFAKIALKIGATADIYHKLKGDITLDNFEAEHRPRLAAEVTQQFIENKSKQCRYCHSVDKMDFEAQGRTVARRHQMMESRDQSCIDCHAGIAHHLPISLDSPET	failed
WPGRDRLRHLEPLRSITQLAALLANELEASVSPDTPLLLAGHSMGAQVAFETCRLLEQRGLAPQGLIISGCHAPHLHSERQLSHRDDADFIAELIDIGGCSPELRENQELMSLFLPLLRADFYATESYHYDSPDVCPPLRTPALLLCGSHDREASWQQVDAWRQWLSHVTGPVVIDGDHFYPIQQARSFFTQIVRHFP	failed
WPIWTRRSDGTLSFANAAYARATDASDAADAIGRNLELLDSGDRAALARALGDGYEYSGRLPIVVGGERRYYDVRALKVSGGSAGIAVDATETAALGAALERMADAHRRTLDQLSSGVAVFDAQRRLSFYNDSYRKLWDL	failed
WYENYRWFFTSEGFLVIGGRTAEMNEEIVAKHLESLDLFFHTQTPGAPAVILKRGQEAGEESIREAAEFAATYSALWKEGKHAGEVYYVLPEQVSKSAKAGEYLPK	failed
YALTEGEDYLVLDKPIPQEQPGKIEVLEFFGYFCVHCHHFDPLLLKLGKALPSDTYLRTEHVVWRPEMLGLARMAAAVKLSGLKYQANSAVFKAVYEQKIRLENRAVAGKWALSQKGFDGKKLMRAYDSPEAAAVALKMQKLTEQYGIDSTPTVIVGGKYRVIFNNGFDGGVHTIKELVAK	failed
YDFIDNPGFDESHSLTEMREAFLSFFEDRDHERIDPYPVAANRWRDDVLLTQASIYDFQPLVTSGTTPPPANPLCISQPCIRMQDIDNVGKTGRHTMAFEMMAHHAFNAREDIEDPEQYAYEGEVYWKNETVQYCDELFEEMGANLDEIVYIEDPWVGGGNAGPAIEVIYRGAELATLVFMSMEQDSDGEYEMKDGNRYSPMDTYIVDTGYGLERWTWMSQGTPTVYEAVYPDMIAFLKDNAGIELTDEEERIVHEAAKLAGRMDI	failed
YDQVTRIIGVAKDITDQIEASESLRDSEQRYRMLAESISDVIFSTDSKLSLNYVSPSVHAVLGYDVEWIFQNGWQSTIANPQQLSGIYTLMDRVSKALDKPEQLAQLRSQVQTQLFLFDCLRADGRKIPIELRLVLVWDEHGAFEGVLGVGRDISQQRRAEKDLRMAATVFEHSTS	failed
YENFIIAGHKEPDGDCIGSCLAMSFFLKRKNKNCILMSAGPFKRTEIKEYEHLFTDKLKISDKINPKTTGLIILDCSNFDRVGEIAELISGFNYIIIDHHATNTEKSDTSLIMPEAPSTTYLIQSIIEEIGEKLTKEEADALFFGLCTDTGFFRHLDAGSAEVFAHASRLIEAG	failed
YGNVWPWKSYEHVVAIAGGIGIPPIKALIEDMQGHTSLDKLTVLYGARSPSDIVYRSEIETWKEEMDFRITVDKGDENWRGHVGVVTTLVPEIKEYNHGAAFVIGPPVMMKFSVKSLLDAGFAEDNIYLSLERRMECG	failed
